Source: patent US9944719 (HOFFMAN LA ROCHE, dated 2018)
Numbering of substitutions follows the chain as printed. Blank lines part the entries; values can stand above or below the binder they belong to.

Experiments:
[1] = target: T1, human IL6 (Peprotech catalogue number 200-06) (human, UniProt P05231 30-212); test: Biacore, GH6L IgG1 captured on GMCSF immobilised on a CM5 chip (GMCSF bound at the same time), concentration series of IL6 injected; five sensorgrams with fits [contd.]
T1 construct: Bought protein
Source text: (§1) The antibody was expressed in human IgG1 format using standard mammalian expression vectors bearing GH6L heavy and light chain and signal peptide cDNAs, by transient transfection of HEK293-6E cells. Expressed IgG was affinity-purified using protein A resin. For Biacore™ analysis, GMCSF (Peprotech catalogue number 300-03) or an anti-light chain capture antibody was immobilized onto a CM5 chip using amine-coupling, resulting in 4000 RU and 12000 RU immobilized GMCSF and anti-light chain capture antibody, respectively.

[2] = target: T1, human IL6 (Peprotech catalogue number …); test: Biacore, GH6L IgG1 captured on anti-light chain antibody immobilised on a CM5 chip (no GMCSF), concentration series of IL6 injected; five sensorgrams with fits [contd.]
Source text: as §1

[3] = target: T2, human VEGF (Peprotech catalogue number 100-20) (human, UniProt P15692-4 27-191); test: SPR (Biacore), Fab captured by anti-light chain antibody on CM5 chip, VEGF 0-450 nM in flow
T2 construct: Bought protein
Description: Antibody libraries were selected against human VEGF (Peprotech catalogue number 100-20) and human IL6 (Peprotech catalogue number 200-06). Of the isolated parental antibody clones, IL6P and VEGFP were combined into the bi-specific antibody clone VH6L. […] To assess the affinities of parental and bi-specific antibodies, Biacore™ analysis was performed in order to analyze the binding behaviour of IL6P, VH6L and VEGFP. For this, an anti-light chain capture antibody was immobilized onto a CM5 chip using amine-coupling, resulting in 12000 RU. Fab fragments were captured to a level of 400-500 RU and a concentration series of IL6 and VEGF, ranging from 0 to 450 nM, was passed over the chip. As depicted in FIG. 7, clone IL6P binds to IL6, but not to VEGF, clone VEGFP binds to VEGF, but not to IL6, and the combined clone VH6L binds to both IL6 and VEGF.

T2 sequence (P15692 other isoform, or with tags, fused parts or gaps limits assumed): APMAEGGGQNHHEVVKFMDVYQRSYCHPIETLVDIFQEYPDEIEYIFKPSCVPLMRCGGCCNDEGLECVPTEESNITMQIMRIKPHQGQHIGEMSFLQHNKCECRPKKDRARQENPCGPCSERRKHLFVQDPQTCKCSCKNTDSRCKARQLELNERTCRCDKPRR

koff [1]: 0.00045 s⁻¹
kon [1]: 24000 M⁻¹ s⁻¹
koff [2]: 0.0017 s⁻¹
kon [2]: 57000 M⁻¹ s⁻¹
B1: GH6L (bispecific antibody, V domains shown)
VH: WVQLVESGGGLVQPGGSLRLSCAAKGALFSTYAMSWIRQAPGKGLEWIGQISGSGGSTVYNYNVLGRFTISRDNSKNTLYLQMNSLRAEDTAVYYCARDSGYFDIWGQGTLVTVSS
VL: ATQRTQSPSSLSASVGDRVTITCRALWHISSYLAWYQQKPGKAPKLLIYAASWLYWDVPSRFSGSGSGTDFTLTISSLQPEDFATYYCQQYSGLPYTFGQGTKVEIKR
notes: Specific for human GMCSF and human IL6, with two paratopes in one VH-VL pair; also called bi-specific antibody clone GH6L

Kd [3]: 7.8 nM
B2: VH6L (Fab, V domains shown)
VH: B1 VH with W1Y, V2Y, K25D, A27F, T31G, S100T, I105H
VL: B1 VL with A1N, T2I, R4K, W53H, Y55H, W56Y, D57G
notes: Bi-specific clone (VEGF and IL6, two paratopes in one VH-VL pair) combined from IL6P and VEGFP; Tested as a Fab fragment; also called bi-specific antibody clone VH6L; combined clone VH6L

Kd [3]: 11 nM
B3: VEGFP (Fab, V domains shown)
VH: B1 VH with W1Y, V2Y, K25D, A27F, T31G, V59Y, Y62D, S100T, I105H
VL: B1 VL with A1D, R4M, L26S, W27Q, H28S, W53H, Y55H, W56Y, D57G, G93S
notes: Parental anti-VEGF clone, tested as a Fab fragment captured by an anti-light chain antibody in Biacore; the constant parts are human CH1 and CK; also called parental antibody VEGFP; clone VEGFP
